To fix the notation:
B3: fly Su(H) (aa 98–523) (domain or fragment)
chain: not shown
notes: Suppressor of Hairless, Drosophila, residues 98-523; also called CSL

Holding throughout (experiment): native gel or EMSA; complexes formed on IRDye-labelled 2xCSL and 1xSPS DNA probes in the same binding reaction; RBPJ/Su(H) 10 to 320 nM, 1 µM NICD/Mastermind; native polyacrylamide gel
Common to all, as to conditions: both partners purified
Background: In EMSA bound probe runs differently from free probe, usually more slowly.

One experiment has as its target T1, mouse RBPJ (aa 53–474) (mouse, UniProt P31266 53-474).
T1 construct: RBPJ, mouse, residues 53-474; also called CSL

In the experiment “fly Su(H) (aa 98–523)” the target is B3.
Another experiment concerns the target T2, fly NICD (aa 1763–2412) (Drosophila, UniProt P07207 1763-2412).
T2 construct: Notch intracellular domain, Drosophila, residues 1763-2412; not the full-length NICD; also called Notch intracellular domain
T2 sequence (looked up): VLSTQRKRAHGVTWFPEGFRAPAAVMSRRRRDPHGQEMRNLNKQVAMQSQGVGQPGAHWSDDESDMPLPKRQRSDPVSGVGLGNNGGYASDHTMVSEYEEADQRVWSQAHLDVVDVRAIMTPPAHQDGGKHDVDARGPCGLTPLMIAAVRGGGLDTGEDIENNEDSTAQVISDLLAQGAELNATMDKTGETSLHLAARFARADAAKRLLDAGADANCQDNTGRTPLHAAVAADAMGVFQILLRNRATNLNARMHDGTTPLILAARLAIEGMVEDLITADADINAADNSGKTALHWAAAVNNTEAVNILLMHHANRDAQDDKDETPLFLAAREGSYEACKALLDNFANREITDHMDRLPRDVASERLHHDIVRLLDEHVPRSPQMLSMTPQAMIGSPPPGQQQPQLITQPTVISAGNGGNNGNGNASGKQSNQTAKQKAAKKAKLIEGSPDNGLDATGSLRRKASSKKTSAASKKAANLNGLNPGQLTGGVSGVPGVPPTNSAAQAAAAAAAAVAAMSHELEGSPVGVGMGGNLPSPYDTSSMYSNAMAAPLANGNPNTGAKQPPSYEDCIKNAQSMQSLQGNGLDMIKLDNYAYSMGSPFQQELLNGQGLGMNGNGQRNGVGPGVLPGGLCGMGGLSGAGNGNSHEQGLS

T1 sequence (P31266 53-474): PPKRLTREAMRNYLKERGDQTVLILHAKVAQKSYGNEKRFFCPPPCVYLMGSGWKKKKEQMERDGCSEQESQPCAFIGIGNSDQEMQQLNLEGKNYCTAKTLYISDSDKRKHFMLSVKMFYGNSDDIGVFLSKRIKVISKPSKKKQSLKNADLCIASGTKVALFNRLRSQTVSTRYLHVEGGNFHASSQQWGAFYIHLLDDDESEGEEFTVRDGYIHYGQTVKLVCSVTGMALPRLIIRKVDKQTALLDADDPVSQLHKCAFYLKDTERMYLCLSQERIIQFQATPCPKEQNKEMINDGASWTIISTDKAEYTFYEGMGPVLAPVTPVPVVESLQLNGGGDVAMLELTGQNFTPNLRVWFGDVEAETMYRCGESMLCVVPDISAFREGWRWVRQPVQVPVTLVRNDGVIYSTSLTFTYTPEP
Sequence of fly Su(H) (aa 98–523) (P28159 98-523): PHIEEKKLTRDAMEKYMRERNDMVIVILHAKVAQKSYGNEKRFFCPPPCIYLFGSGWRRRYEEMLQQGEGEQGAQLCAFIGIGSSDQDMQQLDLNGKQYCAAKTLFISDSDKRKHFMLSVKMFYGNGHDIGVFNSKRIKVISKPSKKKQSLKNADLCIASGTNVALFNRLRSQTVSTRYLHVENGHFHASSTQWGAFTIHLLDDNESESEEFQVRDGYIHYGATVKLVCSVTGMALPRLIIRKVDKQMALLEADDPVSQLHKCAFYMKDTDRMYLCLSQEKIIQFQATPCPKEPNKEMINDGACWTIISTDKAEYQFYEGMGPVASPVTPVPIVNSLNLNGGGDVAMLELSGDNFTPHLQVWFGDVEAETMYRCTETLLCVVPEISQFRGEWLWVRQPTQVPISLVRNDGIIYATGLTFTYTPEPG

B1: human MAML1 (aa 1–280) (domain or fragment, UniProt Q92585 1-280, looked up)
chain: MVLPTCPMAEFALPRHSAVMERLRRRIELCRRHHSTCEARYEAVSPERLELERQHTFALHQRCIQAKAKRAGKHRQPPAATAPAPAAPAPRLDAADGPEHGRPATHLHDTVKRNLDSATSPQNGDQQNGYGDLFPGHKKTRREAPLGVAISSNGLPPASPLGQSDKPSGADALQSSGKHSLGLDSLNKKRLADSSLHLNGGSNPSESFPLSLNKELKQEPVEDLPCMITGTVGSISQSNLMPDLNLNEQEWKELIEELNRSVPDEDMKDLFNEDFEEKKD
notes: Mastermind-like protein 1, human, residues 1-280; not the full-length protein; The results list MAML1 among the 'mouse' proteins, the methods say human MAML1; also called Mastermind
B1: the binding result with mouse RBPJ (aa 53–474) was “binds”.

B2: fly Mastermind (aa 87–307) (domain or fragment, Drosophila, UniProt P21519 87-307, looked up)
chain: PYNANLGATGGIAGITGGNGAGGPTNPGAVPTAPGDTMPTKRMPVVDRLRRRMENYRRRQTDCVPRYEQAFNTVCEQQNQETTVLQKRFLESKNKRAAKKTDKKLPDPSQQHQQQQHQQQQQHQQHQQHQQAQTMLAGQLQSSVHVQQKFLKRPAEDVDNGPDSFEPPHKLPNNNNNSNSNNNNGNANANNGGNGSNTGNNTNNNGNSTNNNGGSNNNGSE
notes: Mastermind, Drosophila, residues 87-307; not the full-length protein; also called Mam
As for B2, the binding result with fly Su(H) (aa 98–523) is given as “binds”.

As for B3, the binding result with fly NICD (aa 1763–2412) is on record as “binds”.

B4: mouse N1ICD (aa 1744–2113) (domain or fragment, UniProt Q01705 1744-2113, looked up)
chain: VLLSRKRRRQHGQLWFPEGFKVSEASKKKRREPLGEDSVGLKPLKNASDGALMDDNQNEWGDEDLETKKFRFEEPVVLPDLSDQTDHRQWTQQHLDAADLRMSAMAPTPPQGEVDADCMDVNVRGPDGFTPLMIASCSGGGLETGNSEEEEDAPAVISDFIYQGASLHNQTDRTGETALHLAARYSRSDAAKRLLEASADANIQDNMGRTPLHAAVSADAQGVFQILLRNRATDLDARMHDGTTPLILAARLAVEGMLEDLINSHADVNAVDDLGKSALHWAAAVNNVDAAVVLLKNGANKDMQNNKEETPLFLAAREGSYETAKVLLDHFANRDITDHMDRLPRDIAQERMHHDIVRLLDEYNLVRSPQ
notes: Notch1 intracellular domain, mouse, residues 1744-2113; not the full-length NICD; also called N1ICD1; NICD
Regarding B4, in the experiment with mouse RBPJ (aa 53–474), the binding result was “binds”.

Values taken from PMC7213981, “Enhancer architecture sensitizes cell specific responses to Notch gene dose via a bind and discard mechanism” (eLife, 2019).
